Assay results published in patent publication US20160321394A1 (ACADEMIA SINICA, published 2016).
Where no end group is shown, it is not given here.

Molecular target: full-length recombinant human GRP78 (glucose-regulated protein 78), N-His tagged (human) (UniProt P11021)
Test: Biacore X SPR, 50 µM peptide over immobilised N-His GRP78; RU/MW normalised to L-peptide

full-length recombinant human GRP78 (glucose-regulated protein 78), N-His tagged (human), sequence (P11021 19-654 limits assumed): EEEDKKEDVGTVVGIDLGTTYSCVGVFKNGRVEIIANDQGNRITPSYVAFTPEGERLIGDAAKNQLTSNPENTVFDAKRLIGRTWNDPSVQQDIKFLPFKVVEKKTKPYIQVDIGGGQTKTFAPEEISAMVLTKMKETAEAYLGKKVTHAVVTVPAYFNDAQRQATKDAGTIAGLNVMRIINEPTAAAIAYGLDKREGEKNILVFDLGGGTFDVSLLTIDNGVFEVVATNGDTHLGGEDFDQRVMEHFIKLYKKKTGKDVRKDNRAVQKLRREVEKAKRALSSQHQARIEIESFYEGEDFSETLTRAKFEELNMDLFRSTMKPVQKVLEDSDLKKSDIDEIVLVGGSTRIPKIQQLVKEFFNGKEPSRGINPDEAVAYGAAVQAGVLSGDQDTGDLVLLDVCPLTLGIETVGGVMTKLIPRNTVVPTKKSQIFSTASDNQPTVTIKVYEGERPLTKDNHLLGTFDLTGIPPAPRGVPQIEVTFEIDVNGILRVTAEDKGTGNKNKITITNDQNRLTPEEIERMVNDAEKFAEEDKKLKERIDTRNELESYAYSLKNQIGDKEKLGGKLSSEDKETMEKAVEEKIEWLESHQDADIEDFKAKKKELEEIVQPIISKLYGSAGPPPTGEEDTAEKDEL

| Binding index | Binder |
| --- | --- |
| 3 | RLLDTNRPYLWY [PB-2] |

Molecular target: T1, full-length recombinant human GRP78 (glucose-regulated protein 78), N-His tagged (human, UniProt P11021 19-654, limits assumed)
T1 construct: Immobilised on a Biacore NTA chip by Ni chelation plus amine coupling; also called His-tagged GRP78; human glucose-regulated protein 78; not shown: N-terminal His tag
T1 sequence (P11021 19-654 limits assumed): as above
Test: as above
Experimental: The chip NTA and HBS-P buffer were obtained from GE Healthcare. Sensor chip NTA was prepared by combining Ni-ion chelation and covalent immobilization of N-His tagged GRP78 via amine-coupling with nitrilotriacetic acid on chip NTA (FIG. 6). To immobilize GRP78 protein on sensor chip for peptide-binding assay using Biacore, the methods based on Ni-ion chelation and amine coupling reaction were combined. Sensor chip NTA was prepared by chelation followed by covalent immobilization of N-His-tagged GRP78 via amine-coupling at the nitrilotriacetic acid group on chip NTA. The sensor chip NTA, HBS-P buffer and amine coupling kits were all obtained from GE Healthcare. First, the activation of chip surface using EDC and NHS reagents for amine coupling were according to the standard procedure from manufacturer's instruction. Additionally, one-minute pulse of NiCl₂ solution (500 μM) was used to attract His-tagged GRP78 to the surface of sensor chip and formed covalent bond subsequently in the condition of HBS-P buffer (pH 7.4). The resulting differences of RU were about 5,000˜6,000 RU. After de-activation by ethanolamine and washed with EDTA (3 mM), the prepared sensor chip was then applied to Biacore X for binding assay. The HBS-P buffer containing 1 mM Gly was used as running buffer for binding assay. Solution of 20 mM sodium hydroxide dissolved in running buffer was used to regenerate the chip surface by one-minute pulse.
The sensor chip thus prepared was applied to Biacore X for determining the binding between the peptides and GRP78. The HBS-P buffer containing 1 mM Gly was used as a running buffer. A solution of 20 mM sodium hydroxide dissolved in the running buffer was used to regenerate chip surface by 1-minute pulses.

| Binding index | Binder |
| --- | --- |
| 1.15 | RLLDTNRPLLPY-NH2 [PB-3] |
| 0.31 | RLLDTNRPNLPY [PA-4] |

More lines, now with the values behind:

| Binder | Binding index |
| --- | --- |
| RLLDTNRPLLPY (synthetic 12-mer, lead peptide; also called positive control) [L-peptide] | 1 |
| RLLDTNRPLLLY [P-14] | 0.21 |
| RLLDTNRPQLPY [PA-5] | 0.3 |
| RLLDTNRPLLGY [P-11] | 0.77 |
| RLLDTNRPFLWY [PB-1] | 1.6 |
| RLLDTNRPHLPY [PA-6] | 0.47 |
| RLLDTNRPWLPY [PA-1] | 0.35 |
